± gives the standard deviation of the averaged measurements.
B1: library; a variant is named by its letters at N, in order (parent)
chain: GCUGUCACCGGAAUACCAGCAUCGUCUUGAUGCCCUUGGAAGUCCGGUCUGAUGAGUCCNNNNNGGACGAAACAGC

Columns and labels:
theophylline [1] = variants of: B1; assay: FACS-Seq fitted mean relative fluorescence mCherry/BFP without ligand (log10 relative fluorescence); higher = higher reporter protein expression; settings: HEK293T, ligand present: no
Outline: (§1)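 Genomic DNA from 6 mCherry/BFP sort bins was PCR-amplified, barcoded and sequenced on MiSeq. The sorted cells were enriched HEK293T libraries, lentivirally transduced with a ribozyme-switch mCherry reporter and an EF1α-BFP marker, incubated with or without ligand for 48 h. Fluorescence derives from a normal fit to the bin counts. The fit was on log10(mCherry/BFP), and means were scaled to five spiked-in control ribozymes.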

theophylline [2] = variants of: B1; assay: normalized RNA/DNA level with ligand (relative to sTRSVctl = 100) (log10 (% of sTRSVctl)); higher = less ribozyme self-cleavage, higher mRNA level; settings: ligand concentration (+) RNA-Seq: 5 mM, HEK293T, reporter: mCherry (pCS4076), ligand present: yes
Outline: (§2)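 Ribozyme switch library plasmids with mCherry reporters (eGFP in certain ligand experiments) went into HEK293T cells at 4 µg per 6-well well. Where ligand was used, it was applied 1 h before transfection, and total RNA was extracted with EDTA 72 h later for reverse transcription, amplification, barcoding and sequencing. RNA level is the RNA-to-DNA read ratio normalized to a spiked-in non-cleaving sequence or to the leading sequences, then scaled and log-transformed. Scaling was ×100 with log10, the leading set comprised 25 sequences, and the cutoff was ≥100 DNA reads.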

theophylline [3] = variants of: B1; assay: normalized RNA/DNA level without ligand (relative to sTRSVctl = 100) (log10 (% of sTRSVctl)); higher = less ribozyme self-cleavage, higher mRNA level; settings: HEK293T, reporter: mCherry (pCS4076), ligand present: no
Outline: as §2

theophylline [4] = variants of: B1; assay: FACS-Seq fitted mean relative fluorescence mCherry/BFP with ligand (log10 relative fluorescence); ligand concentration (+) FACS-Seq: 1 mM; higher = higher reporter protein expression; settings: HEK293T, ligand present: yes
Outline: as §1

| Variant | FACS-Seq fitted mean (log10) (theophylline [1]) | normalized RNA/DNA level with ligand (log10) (theophylline [2]) | normalized RNA/DNA level without ligand (log10) (theophylline [3]) | FACS-Seq fitted mean (log10) (theophylline [4]) |
| --- | --- | --- | --- | --- |
| GAACA | 0.228 ± 0.096 | 1.92 ± 0.025 | 1.6 ± 0.015 | 0.116 ± 0.032 |
| GAACU | 0.973 ± 0.11 | 2.033 ± 0.0061 | 1.83 ± 0.12 | 0.975 ± 0.024 |
| CUCAA | 0.816 ± 0.072 | 1.99 ± 0.05 | 1.67 ± 0.022 | 0.914 ± 0.068 |
| AUCGG | 0.827 ± 0.073 | 1.91 ± 0.11 | 1.87 ± 0.051 | 0.782 ± 0.12 |
| CGGAC | 0.877 ± 0.081 | 1.93 ± 0.024 | 1.8 ± 0.087 | 0.793 ± 0.037 |
| CAUGC | 0.705 ± 0.09 | 2.03 ± 0.085 | 1.98 ± 0.071 | 0.633 ± 0.01 |
| CAUGU | 0.628 ± 0.042 | 1.98 ± 0.033 | 1.96 ± 0.052 | 0.704 ± 0.062 |
| GACUU | 0.702 ± 0.12 | 2.1 ± 0.051 | 1.79 ± 0.038 | 0.696 ± 0.051 |
| AGCCU | 0.951 ± 0.011 | 1.98 ± 0.023 | 1.91 ± 0.11 | 1.06 ± 0.071 |
| AGCCA | 0.758 ± 0.027 | 1.98 ± 0.038 | 1.857 ± 0.0057 | 0.919 ± 0.027 |
| UUCUC | 1.19 ± 0.051 | 1.99 ± 0.049 | 1.94 ± 0.057 | 1.15 ± 0.13 |
| AUACG | 0.526 ± 0.063 | 2.0061 ± 0.0018 | 1.831 ± 0.0082 | 0.507 ± 0.02 |
| AACCG | 0.924 ± 0.031 | 2 ± 0.031 | 1.89 ± 0.071 | 1.13 ± 0.098 |
| AAGAC | 0.968 ± 0.16 | 1.91 ± 0.06 | 1.86 ± 0.14 | 0.922 ± 0.12 |
| AAGAG | 0.563 ± 0.11 | 1.97 ± 0.099 | 1.67 ± 0.089 | 0.728 ± 0.02 |
| AAGAA | 0.0676 ± 0.046 | 1.94 ± 0.04 | 1.36 ± 0.025 | 0.545 ± 0.015 |
| UAUAA | 0.194 ± 0.045 | 2.02 ± 0.052 | 1.47 ± 0.088 | 0.511 ± 0.038 |
| ACGUC | 1.11 ± 0.098 | 1.99 ± 0.031 | 1.91 ± 0.038 | 1.1245 ± 0.0011 |

| Variant | FACS-Seq fitted mean (log10) (theophylline [1]) | normalized RNA/DNA level with ligand (log10) (theophylline [2]) | normalized RNA/DNA level without ligand (log10) (theophylline [3]) | FACS-Seq fitted mean (log10) (theophylline [4]) |
| --- | --- | --- | --- | --- |
| ACGUU | 0.575 ± 0.11 | 2.05 ± 0.044 | 1.79 ± 0.042 | 0.657 ± 0.051 |
| AUGUC | 0.983 ± 0.034 | 1.99 ± 0.11 | 1.84 ± 0.066 | 0.935 ± 0.12 |
| AUGUU | 0.847 ± 0.054 | 1.93 ± 0.068 | 1.87 ± 0.031 | 0.8299 ± 0.0036 |
| CGUGA | -0.0723 ± 0.18 | 1.97 ± 0.025 | 1.58 ± 0.054 | 0.221 ± 0.11 |
| CAAUC | 0.844 ± 0.034 | 1.94 ± 0.053 | 1.83 ± 0.13 | 0.825 ± 0.014 |
| GUAUU | 0.754 ± 0.04 | 2.01 ± 0.053 | 1.88 ± 0.046 | 0.8044 ± 0.005 |
| ACAGC | 1 ± 0.1 | 1.97 ± 0.018 | 1.95 ± 0.053 | 0.971 ± 0.05 |
| UCCUC | 0.414 ± 0.042 | 2.03 ± 0.022 | 2.022 ± 0.015 | 0.566 ± 0.064 |
| UCCUG | 0.994 ± 0.063 | 2.02 ± 0.1 | 1.99 ± 0.037 | 0.905 ± 0.0097 |
| CGACU | 0.265 ± 0.1 | 2 ± 0.031 | 1.7 ± 0.14 | 0.5286 ± 0.0038 |
| UGCCA | 0.592 ± 0.11 | 1.9 ± 0.096 | 1.82 ± 0.068 | 0.481 ± 0.044 |
| CACUC | 1 ± 0.12 | 2 ± 0.11 | 1.98 ± 0.096 | 0.969 ± 0.1 |
| CACUU | 0.741 ± 0.014 | 2 ± 0.028 | 1.756 ± 0.0024 | 1.028 ± 0.0013 |
| UGGAC | 0.19 ± 0.013 | 2 ± 0.049 | 1.93 ± 0.056 | 0.236 ± 0.01 |
| ACUAU | 0.418 ± 0.065 | 1.982 ± 0.019 | 1.84 ± 0.13 | 0.461 ± 0.041 |
| ACUAC | 0.929 ± 0.041 | 1.98 ± 0.093 | 1.98 ± 0.084 | 0.984 ± 0.13 |
| UCUUU | 0.989 ± 0.015 | 2.019 ± 0.0067 | 1.86 ± 0.14 | 1.04 ± 0.1 |
| UACAC | 0.83 ± 0.034 | 1.98 ± 0.02 | 1.99 ± 0.025 | 0.695 ± 0.097 |
